Measurements taken from article PMC3726526, “Structural and Functional Characterization of the Recombinant Death Domain from Death-Associated Protein Kinase” (PLoS ONE, 2013).

Target: T1, GST-ERK2 (extracellular-regulated kinase-2) (human, UniProt P28482 1-360)
T1 construct: full length human ERK2 in pGEX-6-P3, N-terminal GST with a PreScission protease site; The methods and results of the ITC say 'ERK2'; the discussion says that the ITC and CD were done with GST-ERK2; source: E. coli BL21 codon plus; in cell lysate, held on glutathione beads (pull-down); large scale production as previously described [25]; (ITC); not shown: GST, N-terminal, kept
Experiment: ITC; VP-ITC, 25 C; 19 injections of 15 ul of 159 uM GB1-DAPk-DD(L) or 250 uM GB1-DAPk-DD(S) into 1.45 ml of 8.85-18.6 uM ERK2; 50 mM HEPES pH 7.5, 50 mM NaCl, 1 mM TCEP, 1 mM EDTA
Details: both partners purified

T1 sequence (P28482 whole entry): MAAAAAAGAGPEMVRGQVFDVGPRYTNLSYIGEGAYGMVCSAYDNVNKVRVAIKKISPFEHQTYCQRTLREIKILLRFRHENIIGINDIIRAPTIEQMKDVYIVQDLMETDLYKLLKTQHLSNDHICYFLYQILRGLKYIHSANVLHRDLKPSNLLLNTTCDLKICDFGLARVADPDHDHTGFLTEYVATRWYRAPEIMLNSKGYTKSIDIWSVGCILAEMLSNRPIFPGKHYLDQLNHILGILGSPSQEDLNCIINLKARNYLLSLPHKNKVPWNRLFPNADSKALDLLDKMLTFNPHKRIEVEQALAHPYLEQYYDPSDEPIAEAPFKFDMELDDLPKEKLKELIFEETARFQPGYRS

B1: GB1-DAPk-DD(S) (domain or fragment, human, UniProt P53355 1293-1399, looked up)
chain: QASLGMDIHASDLNLLTRRKLSRLLDPPDPLGKDWCLLAMNLGLPDLVAKYNTSNGAPKDFLPSPLHALLREWTTYPESTVGTLMSKLRELGRRDAADFLLKASSVF
notes: death domain region of human death-associated protein kinase (DAPk, DAPK1), residues 1293-1399; Cloned between BamHI and XhoI of plasmid GEV2; all experiments were done with the intact GB1 fusion (thrombin not used); Predicted monomer mass 19.6 kDa; By the primers the XhoI site should add Leu-Glu before the His6 tag (surmised); also called short GB1-DAPk-DD construct; full-length DAPk-DD (short …)
Q: Which Kd does the source give for B1 here?
A: 1770 nM

Q: And the dH?
A: -53.1 kJ/mol

Q: And the “stoichiometry N” value?
A: 0.97 ± 0.01

B2: GB1-DAPk-DD(L) (domain or fragment, human, UniProt P53355 1293-1408, looked up)
chain: QASLGMDIHASDLNLLTRRKLSRLLDPPDPLGKDWCLLAMNLGLPDLVAKYNTSNGAPKDFLPSPLHALLREWTTYPESTVGTLMSKLRELGRRDAADFLLKASSVFKINLDGNGQ
notes: death domain region of human death-associated protein kinase (DAPk, DAPK1) with a nine-residue C-terminal extension from the Ser-rich tail, residues 1293-1408; Made by mutagenesis of a GEV vector holding residues 1293-1431; intact GB1 fusion in all experiments; Predicted monomer mass 20.6 kDa; also called long GB1-DAPk-DD construct; full-length DAPk-DD (long variant); source: E. coli BL21 codon …
Q: Which Kd does the source give for B2 here?
A: 920 nM

Q: And the dH?
A: -38.4 kJ/mol

Q: And the “stoichiometry N” value?
A: 1.03 ± 0.01
